Assay results reported in patent publication US6300131, “Telomerase-associated proteins” (Johns Hopkins University, dated 2001).

Molecular target: ribosomal associated protein L22 (human, UniProt P35268)
Assay: co-immunoprecipitation from 293 cell lysate, Western blot
Method: Multi-tissue northern blots (Clontech) were hybridized with a 0.7 kb BamHI-EcoRI hStau cDNA probe according to the manufacturer's procedures. In particular, blots were hybridized at 68° C. in ExpressHyb solution (Clontech) for 1 hour with shaking. Blots were washed several times in 2×SSC, 0.05% SDS at room temperature, with a final wash in 0.1×SSC and 0.1% SDS at 60° C. for about 40 minutes. The blots then were re-probed with an actin probe without stripping the hStau signal. Signal intensity was quantified on a BAS 1500 PhosphorImager system (Fuji Medical System, Inc, Stamford, Conn.).

binding result: no binding
B1: human staufen (hStau) polypeptide (other)
chain: MKLGKKPMYKPVDPYSRMRSTYNYNMRGGAYPPRYFYPFPVPPLLYQVELSVGGQQFNGKGKTRQAAKHDAAAKALRILQNEPLPERLEVNGRESEEENLNKSEISQVFEIALKRNLPVNFEVARESGPPHMKNFVTKVSVGEFVGEGEGKSKKISKKNAAIAVLEELKKLPPLPAVERVKPRIKKKTKPIVKPQTSPEYGQGINPISRLAQIQQAKKEKEPEYTLLTERGLPRRREFVMQVKVGNHTAEGTGTNKKVAKRNAAENMLEILGFKVPQAQPTKPALKSEEKTPIKKPGDGRKVTFFEPGSGDENGTSNKEDEFRMPYLSHQQLPAGILPMVPEVAQAVGVSQGHHTKDFTRAAPNPAKATVTAMIARELLYGGTSPTAETILKNNISSGHVPHGPLTRPSEQLDYLSRVQGFQVEYKDFPKNNKNEFVSLINCSSQPPLISHGIGKDVESCHDMAALNILKLLSELDQQSTEMPRTGNGPMSVCGRC
